Test [1] deals with histone H3 K36me2 (m36). Nature of the test: anti-FLAG immunoprecipitation and western blot, quantified. The following applies: HEK293 cells transiently transfected; three biological replicates; anti-H3K36me2 blot; parent: est. 1.0; read off a plot. (In western blotting, separated proteins are transferred to a membrane and probed.)
Test [2] concerns the target histone H3 K36me (m36). Described as above. Particulars: HEK293 cells transiently transfected; three biological replicates; anti-H3K36me blot; parent: est. 1.0; read off a plot.
Test [3] has as its target histone H3 K36me3 (m36). Described as above. Particulars: HEK293 cells transiently transfected; three biological replicates; anti-H3K36me3 blot; parent: est. 1.0; read off a plot.
The target in test [4] is histone H3 K9ac (m36). The description is as above. Particulars: HEK293 cells transiently transfected; three biological replicates; anti-H3K9ac blot; parent: est. 1.0; read off a plot.
In test [5] the target is ZMYND8 PHD/BRD/PWWP triple reader cassette (Q83-S406), wild type (human). Put plainly: ITC; ITC200; peptides titrated into a solution of ZMYND8; single-site binding model; n = 3. In general terms: ITC needs no label: the signal is the heat of the interaction.

For “3×FLAG-ZMYND8 full length, wild type (from UniProt Q9ULU4-13) F288A; W291A”, the ratio to parent in test [1] worked out at 0.08; in test [2], 0.28; in test [3], 0.39.
For the substance “3×FLAG-ZMYND8 full length, wild type (from UniProt Q9ULU4-13) N228F”, the ratio to parent in test [4] is 0.19.
On to “Histone H3.3 40-aa recombinant peptide, K14ac (from UniProt P84243 2-41)”, for which, in test [5], the Kd (commonly the free concentration of one partner at which half of the binding sites on the other are occupied at equilibrium, for simple one-to-one binding) is 6.8 µM.

The values above are taken from publication PMC5177622, “Multivalent Histone and DNA Engagement by a PHD/BRD/PWWP Triple Reader Cassette Recruits ZMYND8 to K14ac-Rich Chromatin” (Cell Reports, 2016).
